Our source for the stoichiometry N values is article PMC11860814.

One may read the stoichiometry N as the number of molecules, sites or subunits per partner or assembly.

Test [1] deals with Cry1Ia38 protoxin (Bacillus thuringiensis). The test can be described thus: SEC; Superdex-200 10/300 GL on an ÄKTA Explorer 100; sizes interpolated from protein standards (44-669 kDa); purified proteins loaded. (In gel filtration, larger molecules generally elute earlier.)
Test [2] shares this target. The test can be described thus: SDS-PAGE under non-denaturing conditions; SDS-12%PAGE of SEC peak fractions; loading buffer without SDS or β-mercaptoethanol, heated at 50 °C for 3 min to preserve oligomers.
Test [3] concerns the target Cry1Ia gut fluid intermediate (GF-Int) (Bacillus thuringiensis). The test can be described thus: SEC.
Test [4] has as its target Cry1Ia trypsin intermediate (T-Int) (Bacillus thuringiensis). The test can be described thus: SEC.
For test [5] the target is unchanged. The test can be described thus: SDS-PAGE under non-denaturing conditions; SDS-12%PAGE of SEC peak fractions; loading buffer without SDS or β-mercaptoethanol, heated at 50 °C for 3 min to preserve oligomers.
For test [6], the target named is fully trypsinized Cry1Ia protein (toxin) (Bacillus thuringiensis). Nature of the test: SEC; Superdex-200 10/300 GL on an ÄKTA Explorer 100; sizes interpolated from protein standards (44-669 kDa); purified proteins loaded.

With Cry1Ia38 protoxin (natural protein), the stoichiometry N in test [1] and in test [2] was 2 in each case. For the substance “Cry1Ia gut fluid intermediate (GF-Int) (domain or fragment)”, in test [3], the stoichiometry N turned out to be 2. In the case of “Cry1Ia trypsin intermediate (T-Int) (domain or fragment)”, the stoichiometry N in test [4] and in test [5] was 2 throughout. On to “fully trypsinized Cry1Ia protein (toxin) (domain or fragment)”, for which the stoichiometry N in test [6] was 2.
